Substitutions are numbered along the chain they refer to.
T1: rat GIP receptor (rat) (UniProt P43219)
T1 sequence (looked up): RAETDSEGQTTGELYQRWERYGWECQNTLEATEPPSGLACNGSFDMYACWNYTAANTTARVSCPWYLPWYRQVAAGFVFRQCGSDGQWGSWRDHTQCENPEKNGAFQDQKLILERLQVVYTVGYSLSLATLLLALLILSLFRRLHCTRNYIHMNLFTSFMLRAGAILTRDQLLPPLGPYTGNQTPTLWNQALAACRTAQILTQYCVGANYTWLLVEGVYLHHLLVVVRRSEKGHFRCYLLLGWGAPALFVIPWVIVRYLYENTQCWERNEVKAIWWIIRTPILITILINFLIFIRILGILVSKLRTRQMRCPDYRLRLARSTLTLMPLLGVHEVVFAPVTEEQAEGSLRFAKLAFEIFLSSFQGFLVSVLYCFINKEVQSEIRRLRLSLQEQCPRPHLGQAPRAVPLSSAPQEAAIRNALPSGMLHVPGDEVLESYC

T2: human GIP receptor (human) (UniProt P48546)
T2 sequence (looked up): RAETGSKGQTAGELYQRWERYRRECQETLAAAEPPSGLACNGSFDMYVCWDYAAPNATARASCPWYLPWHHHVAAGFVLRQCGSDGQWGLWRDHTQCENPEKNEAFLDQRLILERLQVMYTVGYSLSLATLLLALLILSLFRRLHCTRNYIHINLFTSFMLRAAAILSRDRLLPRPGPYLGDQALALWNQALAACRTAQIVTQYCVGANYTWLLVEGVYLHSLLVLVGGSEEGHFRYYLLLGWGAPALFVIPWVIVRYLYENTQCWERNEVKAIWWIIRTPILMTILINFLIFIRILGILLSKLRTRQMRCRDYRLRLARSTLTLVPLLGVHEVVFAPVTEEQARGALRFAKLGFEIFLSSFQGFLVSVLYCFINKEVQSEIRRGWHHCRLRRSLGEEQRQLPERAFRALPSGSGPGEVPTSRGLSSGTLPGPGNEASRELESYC

T3: mouse GIP receptor (mouse) (UniProt Q0P543)
T3 sequence (looked up): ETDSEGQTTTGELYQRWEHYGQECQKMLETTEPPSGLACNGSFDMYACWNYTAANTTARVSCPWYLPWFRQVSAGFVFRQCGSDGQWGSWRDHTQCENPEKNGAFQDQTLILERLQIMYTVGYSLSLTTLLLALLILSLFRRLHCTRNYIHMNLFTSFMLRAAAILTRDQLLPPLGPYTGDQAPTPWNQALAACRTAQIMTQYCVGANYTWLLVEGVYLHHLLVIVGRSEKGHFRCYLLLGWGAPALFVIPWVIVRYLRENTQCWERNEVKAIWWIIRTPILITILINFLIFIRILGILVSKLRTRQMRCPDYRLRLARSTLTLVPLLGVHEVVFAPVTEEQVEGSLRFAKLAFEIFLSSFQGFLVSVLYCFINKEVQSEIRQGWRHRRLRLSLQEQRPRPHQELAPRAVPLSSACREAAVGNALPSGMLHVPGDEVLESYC

B1: IP385 (Fc fusion)
chain: YSEGTFTSDYSIYLDRQAIDEFIAWLLKGGGGGGGSGGGGSGGGGSGGGGSACPPC
B2: IP396 (Fc fusion)
chain: B1 chain with I12K, Y13L, D15E
B3: IP342 (Fc fusion)
chain: YSEGTFTSDYSAAAEAAAAAAFAAWLAAAAGGGGGSGGGGSGGGGSGGGGSACPPC
B4: IP321 (Fc fusion)
chain: YSEGTFISDYSIAMDKIHQQDFVNWLLAGGAAAGGSGSTASSGSGSATGGGGAATHTCPPC
B5: IP394 (Fc fusion)
chain: YSEGMHTSDLSKLLERQAIDEFIAWLLKGGAAAGGSGSTASSGSGSATGGGGAATHTCPPC
B6: IP338 (Fc fusion)
chain: YSEGTFISDYSIAMDKIHQQDFVNWLLAQKGGGGGSGGGGSGGGGSGGGGSGGGGSGGGGSGGGGSGGGGSAN
B7: IP337 (Fc fusion)
chain: YSEGTFISDYSIAMDKIHQQDFVNWLLAQKGGGGGSGGGGSGGGGSGGGGSGGGGSGGGGSGGGGSA
B8: IP386 (Fc fusion)
chain: YSEGTFISDYSIAMDKIHQQDFVNWLLAQKGGGGGSGGGGSGGGGSGGGGSACPPC
B9: IP305 (Fc fusion)
chain: YSEGTFISDYSIALAAAAVRDFVNWLLAGGGGGGGSGGGGSGGGGSGGGGSATHTCPPC
B10: IP314 (Fc fusion)
chain: B9 chain with I12K, A13L
B11: IP302 (Fc fusion)
chain: B9 chain with V19Q, R20Q
B12: IP311 (Fc fusion)
chain: B9 chain with V19I, R20D
B13: IP308 (Fc fusion)
chain: B9 chain with V19A, R20K
B14: IP335 (Fc fusion)
chain: YSEGTFISDYSIAMDKIHQQDFVNWLLAQKGGGGGSGGGGSGGGGSGGGGSA
B15: IP332 (Fc fusion)
chain: YSEGTFTSDYSIALAAAAQQDFVNWLLAGGGGGGGSGGGGSGGGGSGGGGSGGGGSGGGGSA
B16: IP333 (Fc fusion)
chain: B15 chain with T7I, A28K
B17: IP334 (Fc fusion)
chain: B15 chain with A28K
B18: IP336 (Fc fusion)
chain: YSEGTFISDYSIAMDKIHQQDFVNWLLAQKGGGGGSGGGGSGGGGSGGGGSGGGGSGGGGSA
B19: IP351 (Fc fusion)
chain: YSEGTFISDYSIAMDKIHQQDFVNWLLAQKPSSGAPPPSGGGGSGGGGSGGGGSGGGGSACPPC
B20: IP344 (Fc fusion)
chain: YSEGTFISDYSIAMDKIHQQDFVNWLLAQKGGGGGSGGGGSGGGGSGGGGSGGGGSA

Biological target: human GLP-1 receptor (human) (UniProt P43220)
Experiment: cell-based or functional assay

Sequence of human GLP-1 receptor (human) (P43220 24-463): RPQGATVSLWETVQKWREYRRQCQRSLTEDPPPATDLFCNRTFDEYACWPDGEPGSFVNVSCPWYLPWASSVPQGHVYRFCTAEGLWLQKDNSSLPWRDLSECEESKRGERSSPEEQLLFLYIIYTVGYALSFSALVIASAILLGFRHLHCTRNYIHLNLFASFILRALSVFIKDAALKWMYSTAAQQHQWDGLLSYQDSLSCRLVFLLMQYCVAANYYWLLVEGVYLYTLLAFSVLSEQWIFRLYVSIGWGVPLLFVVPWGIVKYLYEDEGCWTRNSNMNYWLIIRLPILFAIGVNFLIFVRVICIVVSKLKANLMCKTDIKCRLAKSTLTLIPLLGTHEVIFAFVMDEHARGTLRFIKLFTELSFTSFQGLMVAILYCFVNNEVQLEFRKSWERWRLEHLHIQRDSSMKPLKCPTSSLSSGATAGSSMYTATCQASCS

Binder	cAMP EC50	cAMP EC50, Batch 2
B1	0.47 nM	–
B2	0.11 nM	0.11 nM
B3	75 nM	–
B4	72 nM	–
B5	0.54 nM	–
B6	> 1890 nM	–
B7	> 2300 nM	–
B8	> 9130 nM	–
B9	230 nM	–
B10	> 906 nM	–
B11	26 nM	–
B12	670 nM	–
B13	1300 nM	–
B14	> 5480 nM	–
B15	98 nM	–
B16	> 1080 nM	–
B17	130 nM	–
B18	> 4510 nM	–
B19	110 nM	–
B20	> 8550 nM	–

Biological target: T1, rat GIP receptor (rat)
Experiment: cell-based or functional assay

Binder	cAMP EC50	cAMP EC50, Batch 2
B1	1.1 nM	–
B2	0.19 nM	0.014 nM
B3	5.1 nM	–
B4	0.0079 nM	–
B5	0.06 nM	–
B6	0.005 nM	–
B7	0.0052 nM	–
B8	0.0085 nM	–
B9	1.7 nM	–
B10	0.88 nM	–
B11	0.055 nM	–
B12	0.43 nM	–
B13	0.09 nM	–
B14	0.0067 nM	–
B15	0.044 nM	–
B16	0.015 nM	–
B17	0.056 nM	–
B18	0.0047 nM	–
B19	0.0063 nM	–
B20	0.0062 nM	–

Biological target: T2, human GIP receptor (human)
Experiment: cell-based or functional assay

Binder	cAMP EC50
B1	0.012 nM
B2	0.0093 nM
B3	4.7 nM
B4	0.0096 nM
B5	0.0095 nM
B6	0.0052 nM
B7	0.0062 nM
B8	0.0034 nM
B9	0.26 nM
B10	0.23 nM
B11	0.018 nM
B12	0.074 nM
B13	0.025 nM
B14	0.0058 nM
B15	0.026 nM
B16	0.0086 nM
B17	0.029 nM
B18	0.005 nM
B19	0.0036 nM
B20	0.0053 nM

Biological target: T3, mouse GIP receptor (mouse)
Experiment: cell-based or functional assay

Binder	cAMP EC50	cAMP EC50, Batch 2
B1	18 nM	–
B2	0.28 nM	0.78 nM
B3	43 nM	–
B4	0.017 nM	–
B5	10 nM	–
B6	0.012 nM	–
B7	0.013 nM	–
B8	0.03 nM	–
B9	3.2 nM	–
B10	15 nM	–
B11	0.083 nM	–
B12	0.95 nM	–
B13	0.17 nM	–
B14	0.02 nM	–
B15	0.21 nM	–
B16	0.019 nM	–
B17	0.3 nM	–
B18	0.012 nM	–
B19	0.0098 nM	–
B20	0.011 nM	–

Biological target: mouse GLP-1 receptor (mouse) (UniProt O35659)
Experiment: cell-based or functional assay

Sequence of mouse GLP-1 receptor (mouse) (O35659 22-463): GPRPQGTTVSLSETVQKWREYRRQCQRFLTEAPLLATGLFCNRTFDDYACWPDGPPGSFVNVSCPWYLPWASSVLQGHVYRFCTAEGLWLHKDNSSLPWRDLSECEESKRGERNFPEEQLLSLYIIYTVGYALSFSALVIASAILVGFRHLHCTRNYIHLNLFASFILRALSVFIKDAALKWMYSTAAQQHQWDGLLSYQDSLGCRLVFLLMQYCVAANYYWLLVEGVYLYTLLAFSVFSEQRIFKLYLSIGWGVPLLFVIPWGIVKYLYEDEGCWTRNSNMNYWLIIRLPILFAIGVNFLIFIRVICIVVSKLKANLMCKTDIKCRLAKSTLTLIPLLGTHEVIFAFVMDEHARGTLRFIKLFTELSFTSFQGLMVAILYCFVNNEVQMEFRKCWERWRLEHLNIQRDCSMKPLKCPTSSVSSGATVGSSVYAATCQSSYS

Binder	cAMP EC50	cAMP EC50, Batch 2
B1	30 nM	–
B2	1.2 nM	2.5 nM
B3	670 nM	–
B4	330 nM	–
B5	10 nM	–
B6	> 945 nM	–
B7	> 1150 nM	–
B8	> 16600 nM	–
B9	> 1130 nM	–
B10	> 906 nM	–
B11	93 nM	–
B12	1500 nM	–
B13	> 1520 nM	–
B14	> 2740 nM	–
B15	750 nM	–
B16	> 1080 nM	–
B17	> 455 nM	–
B18	> 2260 nM	–
B19	820 nM	–
B20	> 8550 nM	–

Biological target: human glucagon receptor (human) (UniProt P47871)
Experiment: cell-based or functional assay

Sequence of human glucagon receptor (human) (P47871 26-477): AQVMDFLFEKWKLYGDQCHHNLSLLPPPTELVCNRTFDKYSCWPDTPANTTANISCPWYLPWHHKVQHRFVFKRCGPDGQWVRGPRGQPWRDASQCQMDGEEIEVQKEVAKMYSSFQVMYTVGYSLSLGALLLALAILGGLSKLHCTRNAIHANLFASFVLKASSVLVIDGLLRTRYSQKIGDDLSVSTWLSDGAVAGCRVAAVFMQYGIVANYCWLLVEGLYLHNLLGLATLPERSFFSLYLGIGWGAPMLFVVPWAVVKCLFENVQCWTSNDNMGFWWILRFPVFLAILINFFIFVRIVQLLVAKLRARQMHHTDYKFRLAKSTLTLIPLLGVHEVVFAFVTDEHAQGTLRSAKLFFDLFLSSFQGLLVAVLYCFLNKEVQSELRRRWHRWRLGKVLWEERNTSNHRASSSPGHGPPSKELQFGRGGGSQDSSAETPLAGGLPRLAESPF

Binder	cAMP EC50	cAMP EC50, Batch 2
B1	> 1560 nM	–
B2	330 nM	250 nM
B3	> 3560 nM	–
B4	24 nM	–
B5	> 17600 nM	–
B6	190 nM	–
B7	200 nM	–
B8	540 nM	–
B9	1100 nM	–
B10	740 nM	–
B11	1200 nM	–
B12	> 2420 nM	–
B13	1500 nM	–
B14	280 nM	–
B15	> 1250 nM	–
B16	> 1080 nM	–
B17	> 455 nM	–
B18	200 nM	–
B19	130 nM	–
B20	200 nM	–

Biological target: rat GLP-1 receptor (rat) (UniProt P32301)
Experiment: cell-based or functional assay

Sequence of rat GLP-1 receptor (rat) (P32301 22-463): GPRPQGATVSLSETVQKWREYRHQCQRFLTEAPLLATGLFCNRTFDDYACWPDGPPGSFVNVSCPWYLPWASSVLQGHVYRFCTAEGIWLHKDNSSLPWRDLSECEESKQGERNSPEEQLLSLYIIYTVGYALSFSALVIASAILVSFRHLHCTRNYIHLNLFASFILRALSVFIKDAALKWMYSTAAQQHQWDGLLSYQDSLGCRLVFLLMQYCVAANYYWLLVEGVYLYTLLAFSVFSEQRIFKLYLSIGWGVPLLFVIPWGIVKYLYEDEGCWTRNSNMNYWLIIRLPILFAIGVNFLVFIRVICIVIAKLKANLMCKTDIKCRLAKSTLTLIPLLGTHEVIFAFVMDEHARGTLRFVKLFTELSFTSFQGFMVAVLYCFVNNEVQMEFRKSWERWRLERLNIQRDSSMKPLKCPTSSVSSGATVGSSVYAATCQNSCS

Binder	cAMP EC50	cAMP EC50, Batch 2
B1	0.16 nM	–
B2	0.057 nM	0.01 nM
B3	23 nM	–
B4	22 nM	–
B5	0.23 nM	–
B6	> 945 nM	–
B7	> 1150 nM	–
B8	> 16600 nM	–
B9	47 nM	–
B10	450 nM	–
B11	7 nM	–
B12	61 nM	–
B13	700 nM	–
B14	> 2740 nM	–
B15	50 nM	–
B16	430 nM	–
B17	120 nM	–
B18	> 2260 nM	–
B19	210 nM	–
B20	> 8550 nM	–
